Results: patent EP0638644A1
pKd: −log10 of the molar value.

How the values were obtained:
[1] = biological target: soluble complex of ¹²⁵I-IL-12 crosslinked to human IL-12R (human) (UniProt P29459); test: immunoprecipitation of solubilized 125I-IL-12/IL-12R complex by immobilized control antibody (background)
[2] = biological target: recombinant human IL-12 receptor (clone No. 5, SEQ ID NO:2) expressed in COS cells (human); test: equilibrium binding of labelled murine IL-12 to COS cells expressing clone 5, Scatchard, single site (Figure 19B)

Sequence of soluble complex of ¹²⁵I-IL-12 crosslinked to human IL-12R (human) (P29459 23-219, form in doubt, chain 1 of 3, other chains not shown): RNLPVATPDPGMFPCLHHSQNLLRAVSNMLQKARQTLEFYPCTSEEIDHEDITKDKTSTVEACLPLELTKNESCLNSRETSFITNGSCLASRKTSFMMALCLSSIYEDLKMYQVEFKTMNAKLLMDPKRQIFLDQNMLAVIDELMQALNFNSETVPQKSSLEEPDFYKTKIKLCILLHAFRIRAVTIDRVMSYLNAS
Sequence of soluble complex of ¹²⁵I-IL-12 crosslinked to human IL-12R (human) (P29460 23-328, form in doubt, chain 2 of 3, other chains not shown, further chain): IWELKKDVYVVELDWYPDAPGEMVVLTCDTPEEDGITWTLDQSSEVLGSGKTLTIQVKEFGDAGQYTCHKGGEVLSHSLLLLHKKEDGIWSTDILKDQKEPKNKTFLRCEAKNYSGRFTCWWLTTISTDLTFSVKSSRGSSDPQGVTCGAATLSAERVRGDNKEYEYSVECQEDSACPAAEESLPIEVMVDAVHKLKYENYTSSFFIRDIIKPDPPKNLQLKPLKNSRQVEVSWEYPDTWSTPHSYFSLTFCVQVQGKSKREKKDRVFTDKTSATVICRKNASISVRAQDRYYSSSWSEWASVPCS

## Control mAb (Table 1) (antibody)
[1]
  I.P. ASSAY (cpm bound): 402 cpm

## Recombinant murine IL-12 (from UniProt P43431 23-215; P43432 23-335) (ligand)
[2]
  pKd: 8.68
